Measurements published in publication PMC4978220.

Target: full-length PbgA protein with a carboxyl-terminal 6XHis tag (S. Typhimurium)
Assay: SEC-MALS

Substance: full-length PbgA protein with a carboxyl-terminal 6XHis tag (natural protein)
- stoichiometry N: 4
